The results in this text go back to IntAct's records for PubMed 19959993.

Sequences and labels used below:
B1: Synaptonemal complex protein ZIP1 (Saccharomyces cerevisiae), P31111 (parent)
chain: MSNFFRDSSMGFKPRPNIFAKLRVRDVDSDSSANTVVENSSNCLDVGSSIEGDDTFKKPHKTSTEQELITSMSLSQRNHGYSDDMEIGSPKKTTSTDQYNRILKNDVAAIENDTDEDFEITEVREVSEGVAKETKESHGDPNDSETTLKDSKMHEYTMTNGKAPLHTSINNSSTSSNDVLLEAFTNTQRICSNLKQELQKQQQDNAKLKVRLQSYASNSDKINEKVGKYKSCLETLQERIATLTSHKNNQETKLKDLRQNHQLYQRRISGFKTSIENLNKTINDLGKNKKEADAELMKKGKEIEYLKRELDDCSGQLSEEKIKNSSLIQEMGKNREEMIKSIENFFSEDKAHHLLQFNKFEERVHDLFEKKLQKHFDVAKDTLNVGLRNTTVELSSNTETMLKQQYEDIKENLEQKMSSSKDEMAKTINELSVTQKGLIMGVQEELLTSSGNIQTALVSEMNNTRQELLDDASQTAKNYASLENLVKAYKAEIVQSNEYEERIKHLESERSTLSSQKNQIISSLGTKEAQYEDLVKKLEAKNIEISQISGKEQSLTEKNENLSNELKKVQDQLEKLNNLNITTKSNYENKISSQNEIVKALVSENDTLKQRIQQLVEIKENEQKDHTTKLEAFQKNNEQLQKLNVEVVQLKAHELELEEQNRHLKNCLEKKETGVEESLSDVKTLKQQVIVLKSEKQDITAEKLELQDNLESLEEVTKNLQQKVQSQKRELEQKIKELEEIKNHKRNEPSKKGTQNFTKPSDSPKKNATTSNLFPNNSAAIHSPMKKCPKVDHISKSRINSSKETSKFNDEFDLSSSSNDDLELTNPSPIQIKPVRGKIKKGSNCMKPPISSRKKLLLVEDEDQSLKISKKRRRK
partner: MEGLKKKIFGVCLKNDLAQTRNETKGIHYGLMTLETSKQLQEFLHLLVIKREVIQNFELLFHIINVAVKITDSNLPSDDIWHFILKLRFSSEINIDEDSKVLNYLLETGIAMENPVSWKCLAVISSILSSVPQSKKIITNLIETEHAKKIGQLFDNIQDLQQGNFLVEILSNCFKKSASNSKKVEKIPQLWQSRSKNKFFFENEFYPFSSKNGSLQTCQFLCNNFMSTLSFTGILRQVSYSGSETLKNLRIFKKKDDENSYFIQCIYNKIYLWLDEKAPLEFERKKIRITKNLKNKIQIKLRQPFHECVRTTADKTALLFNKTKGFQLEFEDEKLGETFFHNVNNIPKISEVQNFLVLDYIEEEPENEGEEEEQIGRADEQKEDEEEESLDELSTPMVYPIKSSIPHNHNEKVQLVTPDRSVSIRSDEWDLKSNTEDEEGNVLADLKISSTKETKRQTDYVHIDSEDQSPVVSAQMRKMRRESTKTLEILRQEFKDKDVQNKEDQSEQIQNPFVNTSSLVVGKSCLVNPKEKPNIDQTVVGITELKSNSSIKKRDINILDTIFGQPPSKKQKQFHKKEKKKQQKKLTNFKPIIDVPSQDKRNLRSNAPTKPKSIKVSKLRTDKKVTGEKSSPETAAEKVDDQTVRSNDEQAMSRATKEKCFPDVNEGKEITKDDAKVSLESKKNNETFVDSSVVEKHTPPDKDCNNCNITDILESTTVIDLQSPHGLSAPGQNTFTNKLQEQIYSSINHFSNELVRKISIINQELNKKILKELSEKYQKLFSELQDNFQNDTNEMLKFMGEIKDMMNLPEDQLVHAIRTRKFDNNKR
B2: Protein RED1 (Saccharomyces cerevisiae), P14291 (parent)
chain: B1 partner

The first experiment covers variants of B1. The following applies: with red1_yeast RED1, P14291.
Consider Q864R, for which the “effect of a mutation on the interaction” value was “decreasing interaction”.
On the same count and under the same terms, as for E862R, the entry is “decreasing interaction”; as for D863R, “decreasing interaction”.

Variants of B2 are the subject of another experiment. The conditions noted are these: with smt3_yeast SMT3, Q12306.
Chain of smt3_yeast SMT3, Q12306 (Q12306 whole entry): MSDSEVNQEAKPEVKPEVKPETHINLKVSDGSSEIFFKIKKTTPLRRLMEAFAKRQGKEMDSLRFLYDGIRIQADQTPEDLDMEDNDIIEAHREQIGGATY
I758R: the “effect of a mutation on the interaction” value is “decreasing interaction”.

The next experiment covers variants of B2. The conditions noted are these: with smt3_yeast SMT3, Q12306. This is another data set of the same source.
For the variant T717R, the “effect of a mutation on the interaction” value is “decreasing interaction”.
On the same count and under the same terms, as for S715R, the entry is “decreasing interaction”.
